Laboratory results reported in the supplement of paper PMC9233669.
Fewer inactive variants are shown than the library holds.

How the values were obtained:
biotinyl-Val-oxazolone = assay: self-aminoacylation, catalytic enhancement (BVO) (fold over background); higher = more active; k-Seq, kA / k0A0; sequences stand for … in GGGAAUGGAUCCACAUCUACGAAUUC…UUCACUGCAGACUUGACGAAGCUG
Method in brief: (§1)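 Working in 50 μL HEPES/NaCl/KCl/MgCl2/CaCl2 buffer with 5% acetonitrile at pH 6.9–7.0, mutagenized RNA pools (0.43 μM; 21-nt variable region) were reacted with 2–1250 μM of each biotinyl-aminoacyl-oxazolone for 90 minutes at room temperature. Streptavidin capture followed, with quantification by triplicate qPCR and Illumina sequencing. Catalytic enhancement is reported as median kA over the uncatalyzed rate, the low-activity peak of a bimodal Gaussian fit to the data.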

biotinyl-Leu-oxazolone = assay: self-aminoacylation, catalytic enhancement (BLO) (fold over background); higher = more active; k-Seq, kA / k0A0; sequences stand for … in GGGAAUGGAUCCACAUCUACGAAUUC…UUCACUGCAGACUUGACGAAGCUG
Method in brief: as §1

biotinyl-Met-oxazolone = assay: self-aminoacylation, catalytic enhancement (BMO) (fold over background); higher = more active; k-Seq, kA / k0A0; sequences stand for … in GGGAAUGGAUCCACAUCUACGAAUUC…UUCACUGCAGACUUGACGAAGCUG
Method in brief: as §1

biotinyl-Ile-oxazolone = assay: self-aminoacylation, catalytic enhancement (BIO) (fold over background); higher = more active; k-Seq, kA / k0A0; sequences stand for … in GGGAAUGGAUCCACAUCUACGAAUUC…UUCACUGCAGACUUGACGAAGCUG
Method in brief: as §1

biotinyl-Phe-oxazolone = assay: self-aminoacylation, catalytic enhancement (BFO) (fold over background); higher = more active; k-Seq, kA / k0A0; sequences stand for … in GGGAAUGGAUCCACAUCUACGAAUUC…UUCACUGCAGACUUGACGAAGCUG
Method in brief: as §1

biotinyl-Trp-oxazolone = assay: self-aminoacylation, catalytic enhancement (BWO) (fold over background); higher = more active; k-Seq, kA / k0A0; sequences stand for … in GGGAAUGGAUCCACAUCUACGAAUUC…UUCACUGCAGACUUGACGAAGCUG
Method in brief: as §1

Sequence | self-aminoacylation (biotinyl-Val-oxazolone) | self-aminoacylation (biotinyl-Leu-oxazolone) | self-aminoacylation (biotinyl-Met-oxazolone) | self-aminoacylation (biotinyl-Ile-oxazolone) | self-aminoacylation (biotinyl-Phe-oxazolone) | self-aminoacylation (biotinyl-Trp-oxazolone)
AUUAACCUGGUCAUCGAGUGC [Fam2.1 aminoacylation ribozyme variant] | 1.1 | 1.18 | 1.25 | 0.994 | 0.898 | 0.854
AUUACCCUCGUCAUCGAGUAA [Fam2.1 aminoacylation ribozyme variant] | 1.02 | 0.985 | 0.866 | 0.904 | 0.716 | 0.978
CCACACUUAAAGCAAACGGUC [Fam1B.1 aminoacylation ribozyme variant] | 0.765 | 0.616 | 0.502 | 0.685 | 0.924 | 0.578
CCACACGUCAGGCAAUCGGUC [Fam1B.1 aminoacylation ribozyme variant] | 2.52 | 1.81 | 1.33 | 1.38 | 3.26 | 1.93
AUUCGCCUAGAUCAUCGGGUG [Fam2.2 aminoacylation ribozyme variant] | 2.27 | 4.04 | 2.69 | 2.08 | 19.1 | 3.12
CCAUACUUCAAGAAAUCGGUC [Fam1B.1 aminoacylation ribozyme variant] | 0.787 | 0.87 | 0.777 | 0.907 | 5.18 | 4.39
CCCCACUUCAAGCAAUCGGAC [Fam1B.1 aminoacylation ribozyme variant] | 1.52 | 1.19 | 1.44 | 1.45 | 2.8 | 2.45
GCACACUUCAAGCAAUCCGUC [Fam1B.1 aminoacylation ribozyme variant] | 1.98 | 1.71 | 1.2 | 1.66 | 1.76 | 2.01
AUUCACCCAGGUCAACGGGUG [Fam2.2 aminoacylation ribozyme variant] | 2.53 | 4.29 | 3.24 | 1.96 | 19.7 | 3.81
CUACUUCAAACAAUCGCUCUA [Fam1A.1 aminoacylation ribozyme variant] | 0.948 | 0.642 | 1.05 | 0.862 | 0.778 | 0.736
AUGUUUGCUAAUAGUCACAAG [Fam3.1 aminoacylation ribozyme variant] | 1.01 | 1.07 | 1.17 | 1.24 | 5.37 | 2.35
CCUCACUUCAAGGAAUCGGUC [Fam1B.1 aminoacylation ribozyme variant] | 0.869 | 0.936 | 0.946 | 0.76 | 6.28 | 4.27
AUUACCUUAGUCAUCGAGUGA [Fam2.1 aminoacylation ribozyme variant] | 2.59 | 4.62 | 4.41 | 2.71 | 14.8 | 5.48
AAGUAAGCUAAUAGUCGCAAG [Fam3.1 aminoacylation ribozyme variant] | 1.33 | 1.43 | 1.18 | 1.55 | 2.82 | 1.5
AAUACCCUGGUCAUCGAGCGA [Fam2.1 aminoacylation ribozyme variant] | 1.66 | 1.55 | 2.03 | 1.65 | 1.56 | 2.75
AUUCACCUAGGUCAUUCGGUG [Fam2.2 aminoacylation ribozyme variant] | 3.79 | 6.91 | 4.55 | 3.94 | 33.6 | 5.13
ACACACUGCAAGCAAUCGGUC [Fam1B.1 aminoacylation ribozyme variant] | 1.33 | 1.48 | 1.23 | 1.43 | 1.36 | 1.73
AAGUUUGCUAACAGUCGCAAA [Fam3.1 aminoacylation ribozyme variant] | 0.995 | 1.23 | 1.06 | 1.43 | 2.28 | 1.58
AAGUUCCCUAAUAGUCGCAAG [Fam3.1 aminoacylation ribozyme variant] | 0.992 | 0.965 | 0.931 | 1.12 | 0.485 | 0.613
CGACACUUCAAGCACUCGGUC [Fam1B.1 aminoacylation ribozyme variant] | 1.32 | 1.3 | 1.38 | 1.28 | 1.46 | 2
AUUAAGCUAGGUCAUCGGGUG [Fam2.2 aminoacylation ribozyme variant] | 3.77 | 5.1 | 3.88 | 3.11 | 34.3 | 4.85
AAGUUUGCUAACAAUCGCAAG [Fam3.1 aminoacylation ribozyme variant] | 0.599 | 0.591 | 0.63 | 0.619 | 1.03 | 0.717
CCACACCUUAAGCAAUCGGUC [Fam1B.1 aminoacylation ribozyme variant] | 1.19 | 1.03 | 1.15 | 1.16 | 0.93 | 0.714
AUUCCCCUAGGUCUUCGGGUG [Fam2.2 aminoacylation ribozyme variant] | 13.9 | 26.7 | 19.3 | 13.7 | 127 | 21.8
CUUCUUCAAACAAUCGCUCUG [Fam1A.1 aminoacylation ribozyme variant] | 0.928 | 0.823 | 0.85 | 0.783 | 1.72 | 1.55
CCACAGUUCAAGGAAUCGGUC [Fam1B.1 aminoacylation ribozyme variant] | 1.19 | 1.33 | 1.12 | 1.23 | 1.09 | 1.18

Sequence | self-aminoacylation (biotinyl-Val-oxazolone) | self-aminoacylation (biotinyl-Leu-oxazolone) | self-aminoacylation (biotinyl-Met-oxazolone) | self-aminoacylation (biotinyl-Ile-oxazolone) | self-aminoacylation (biotinyl-Phe-oxazolone) | self-aminoacylation (biotinyl-Trp-oxazolone)
AAGUUUGCUAAUUGUCGCCAG [Fam3.1 aminoacylation ribozyme variant] | 1.39 | 1.49 | 1.53 | 1.49 | 5.34 | 1.73
AAAUGUGCUAAUAGUCGCAAG [Fam3.1 aminoacylation ribozyme variant] | 1.46 | 1.53 | 2.16 | 2.12 | 2.84 | 1.48
CCUCACUCCAAGCAAUCGGUC [Fam1B.1 aminoacylation ribozyme variant] | 0.947 | 0.915 | 0.767 | 1.03 | 5.18 | 2.39
AAGAUUGCUAGUAGUCGCAAG [Fam3.1 aminoacylation ribozyme variant] | 1.61 | 1.89 | 1.83 | 1.36 | 1.28 | 1.48
CGACUUCAAACAAUCCGUCUG [Fam1A.1 aminoacylation ribozyme variant] | 1.18 | 1.07 | 1.23 | 1.27 | 2.5 | 1.72
AAGUUUGAUAAUAGCCGCAAG [Fam3.1 aminoacylation ribozyme variant] | 1.14 | 1.05 | 1.37 | 1.29 | 1.32 | 1.19
AAGUUGGUUAAUAGUCGCAAG [Fam3.1 aminoacylation ribozyme variant] | 1.24 | 1.46 | 1.42 | 1.4 | 1.87 | 1.81
CGACUUCAAACGAUCGGUCUG [Fam1A.1 aminoacylation ribozyme variant] | 1.13 | 1.41 | 1.31 | 1.05 | 1.8 | 2.1
AUUACCCUGGCCAUCUAGUGA [Fam2.1 aminoacylation ribozyme variant] | 2.79 | 5.69 | 4.68 | 2.93 | 28.6 | 4.43
AUUCACCUAAGUCAUCUGGUG [Fam2.2 aminoacylation ribozyme variant] | 1.86 | 3.72 | 2.52 | 2 | 16.6 | 2.98
CUACUUCGAAGAAUCGGUCUG [Fam1A.1 aminoacylation ribozyme variant] | 0.839 | 0.757 | 0.933 | 0.875 | 0.287 | 0.567
AUUACCCUGGUCCCCGAGUGA [Fam2.1 aminoacylation ribozyme variant] | 8.55 | 15.6 | 15.2 | 6.57 | 113 | 17.3
CUACUUCAAACAUUCGGUCUU [Fam1A.1 aminoacylation ribozyme variant] | 1.11 | 1.03 | 1.38 | 1.15 | 0.774 | 0.767
CCACCCUUCAAGCAAUCGGUC [Fam1B.1 aminoacylation ribozyme variant] | 1.32 | 1.16 | 0.936 | 1.05 | 19.9 | 11.3
GUACUUCAAACAAUCGGUCUU [Fam1A.1 aminoacylation ribozyme variant] | 1.3 | 1.49 | 1.14 | 1.43 | 12.8 | 12
CCACACUUAAAGCAAUAGGUC [Fam1B.1 aminoacylation ribozyme variant] | 0.913 | 0.662 | 0.509 | 0.67 | 1.24 | 0.592
CCACACUUCAAGGAAUCGGCC [Fam1B.1 aminoacylation ribozyme variant] | 2.4 | 2.39 | 2.08 | 1.89 | 1.42 | 4.4
CCACACUUGACGCAAUCGGUC [Fam1B.1 aminoacylation ribozyme variant] | 1.43 | 1.21 | 1.44 | 1.4 | 1.18 | 1.54
CCACACUUCAAGCAUUCGGAC [Fam1B.1 aminoacylation ribozyme variant] | 1.29 | 0.681 | 0.977 | 1.35 | 0.829 | 0.71
AAGUUUCGUAAUAGUCGCAAG [Fam3.1 aminoacylation ribozyme variant] | 1.33 | 1.78 | 1.27 | 1.63 | 2.26 | 1.61
AUUCACCUAGGUCUUCGGGUG [Fam2.2 aminoacylation ribozyme variant] | 3.71 | 5.48 | 4.46 | 3.33 | 27.4 | 4.38
AAGCUUGCUAAUAGUCGGAAG [Fam3.1 aminoacylation ribozyme variant] | 1.3 | 1.21 | 1.34 | 1.48 | 3.45 | 1.65
CCACACUUCAAGCAUUCGCUC [Fam1B.1 aminoacylation ribozyme variant] | 2.88 | 2.41 | 2.42 | 2.27 | 2.04 | 2.64
CCAGACUUCAAGCAACCGGUC [Fam1B.1 aminoacylation ribozyme variant] | 1.36 | 1.02 | 0.698 | 1.47 | 1.53 | 2
AAUACCCCGGUCAUCGAGUGA [Fam2.1 aminoacylation ribozyme variant] | 3.57 | 5.27 | 4.63 | 3.15 | 27.9 | 5.61
